The results in this text go back to US6995018.

In this assay the target is human complement Factor H (human) (UniProt P08603). The experiment in a line: steady state fluorescence, titration of purified human Factor H with rOPN.
Chain of human complement Factor H (human) (P08603 19-1231 limits assumed): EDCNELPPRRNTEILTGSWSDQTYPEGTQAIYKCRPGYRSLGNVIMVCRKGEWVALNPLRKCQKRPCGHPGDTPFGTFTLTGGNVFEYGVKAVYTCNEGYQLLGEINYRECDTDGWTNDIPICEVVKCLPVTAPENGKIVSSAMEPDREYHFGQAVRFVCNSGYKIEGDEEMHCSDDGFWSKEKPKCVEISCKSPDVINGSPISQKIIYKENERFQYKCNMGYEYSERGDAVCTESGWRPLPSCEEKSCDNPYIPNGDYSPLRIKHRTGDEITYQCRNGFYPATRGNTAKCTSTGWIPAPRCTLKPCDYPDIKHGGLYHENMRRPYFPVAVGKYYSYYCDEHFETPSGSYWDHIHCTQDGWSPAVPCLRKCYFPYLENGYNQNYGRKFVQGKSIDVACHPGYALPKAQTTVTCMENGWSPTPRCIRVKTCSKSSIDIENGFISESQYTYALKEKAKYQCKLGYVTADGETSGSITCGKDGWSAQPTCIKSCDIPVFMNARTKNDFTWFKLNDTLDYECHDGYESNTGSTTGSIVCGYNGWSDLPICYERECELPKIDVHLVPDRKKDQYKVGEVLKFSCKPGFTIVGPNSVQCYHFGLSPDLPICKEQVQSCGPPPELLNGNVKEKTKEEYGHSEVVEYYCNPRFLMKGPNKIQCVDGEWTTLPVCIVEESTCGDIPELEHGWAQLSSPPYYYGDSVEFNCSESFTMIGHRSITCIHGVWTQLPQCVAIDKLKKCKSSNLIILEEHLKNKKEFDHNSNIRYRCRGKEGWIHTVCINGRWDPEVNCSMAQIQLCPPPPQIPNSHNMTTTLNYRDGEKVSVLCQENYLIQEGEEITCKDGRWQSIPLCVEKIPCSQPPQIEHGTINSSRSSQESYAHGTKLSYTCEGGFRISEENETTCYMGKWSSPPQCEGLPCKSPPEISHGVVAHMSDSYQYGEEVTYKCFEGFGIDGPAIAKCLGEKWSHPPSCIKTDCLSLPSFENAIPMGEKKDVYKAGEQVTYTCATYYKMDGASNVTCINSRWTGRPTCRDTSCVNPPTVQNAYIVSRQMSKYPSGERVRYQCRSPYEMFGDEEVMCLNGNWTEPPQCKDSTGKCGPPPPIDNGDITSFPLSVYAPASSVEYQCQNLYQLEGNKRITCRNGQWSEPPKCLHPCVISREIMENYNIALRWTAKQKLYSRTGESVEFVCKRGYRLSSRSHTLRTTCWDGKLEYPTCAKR

As for “recombinant osteopontin (rOPN) (from UniProt P10451 17-300) (ligand)”, the stoichiometry (OPN:Factor H) stood at 1 mol/mol.
